Measured values taken from patent EP0817650B1.

Assays:
[1] = molecular target: MHC Class II products on splenic antigen-presenting cells of SJL mice (H-2 s) (mouse); assay: flow cytometry, inhibition of binding to SJL splenic APC; competitor: biotinylated peptide Ia
[2] = molecular target: MHC Class II products on splenic antigen-presenting cells of SJL mice (H-2 s) (mouse); assay: flow cytometry, inhibition of binding to SJL splenic APC; competitor: biotinylated peptide IIIa
[3] = molecular target: MHC Class II products on splenic antigen-presenting cells of C3H.SW mice (H-2 b) (mouse) (UniProt P14434); assay: flow cytometry, inhibition of binding to C3H.SW splenic APC; competitor: biotinylated peptide IIIa
[4] = molecular target: MHC Class II products on splenic antigen-presenting cells of C3H.SW mice (H-2 b) (mouse) (UniProt P14434); assay: flow cytometry, inhibition of binding to C3H.SW splenic APC; competitor: biotinylated peptide Ia
[5] = molecular target: T1, MHC Class II products on splenic antigen-presenting cells of BALB/c mice (H-2 d) (mouse) (UniProt P04228); assay: flow cytometry, inhibition of binding to BALB/c splenic APC; competitor: biotinylated peptide IIIa
T1 sequence (alpha): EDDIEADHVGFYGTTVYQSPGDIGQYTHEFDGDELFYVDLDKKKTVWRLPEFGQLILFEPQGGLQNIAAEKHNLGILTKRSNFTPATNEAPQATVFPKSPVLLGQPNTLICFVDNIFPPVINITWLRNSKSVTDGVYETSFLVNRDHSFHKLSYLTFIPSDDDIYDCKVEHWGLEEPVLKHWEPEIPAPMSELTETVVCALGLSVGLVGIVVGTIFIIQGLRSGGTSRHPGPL
T1 sequence (beta): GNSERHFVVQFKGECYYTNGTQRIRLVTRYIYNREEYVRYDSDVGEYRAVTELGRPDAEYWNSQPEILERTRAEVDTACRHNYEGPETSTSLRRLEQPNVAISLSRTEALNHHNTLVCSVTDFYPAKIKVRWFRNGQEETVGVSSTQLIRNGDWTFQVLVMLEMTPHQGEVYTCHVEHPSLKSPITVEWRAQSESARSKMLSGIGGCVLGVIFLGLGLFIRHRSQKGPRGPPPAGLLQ

[6] = molecular target: T1, MHC Class II products on splenic antigen-presenting cells of BALB/c mice (H-2 d) (mouse); assay: flow cytometry, inhibition of binding to BALB/c splenic APC; competitor: biotinylated peptide Ia
[7] = molecular target: MHC Class II products on splenic antigen-presenting cells of C57BL/6 mice (H-2 b) (mouse) (UniProt P14434); assay: flow cytometry, inhibition of binding to C57BL/6 splenic APC; competitor: biotinylated peptide Ia
[8] = molecular target: MHC Class II products on splenic antigen-presenting cells of C57BL/6 mice (H-2 b) (mouse) (UniProt P14434); assay: flow cytometry, inhibition of binding to C57BL/6 splenic APC; competitor: biotinylated peptide IIIa

| Substance | %inhibition [1] [%] | %inhibition [2] [%] | %inhibition [3] [%] | %inhibition [4] [%] | %inhibition [5] [%] | %inhibition [6] [%] | %inhibition [7] [%] | %inhibition [8] [%] |
| --- | --- | --- | --- | --- | --- | --- | --- | --- |
| 10.3.6.2 (anti-I-A^s) (antibody) | 100 | 92.8 |  |  |  |  |  |  |
| 34-5-3 (anti-I-A^b, Pharmingen) (antibody) |  |  | 84.4 | 60 | 0 | 0 | 82 | 59.3 |
| MKD6 (anti-I-A^d, Beckton-Dickinson) (antibody) | 0 | 0 | 25 | 0 | 100 | 76.7 | 0 | 0 |
